Source: US11135246B2, “Peptides and combination of peptides for use in immunotherapy against leukemias and other cancers” (Immatics Biotechnologies GmbH, priority 2017, dated 2021)

Each substance was assayed against HLA-B*44:02 (Homo sapiens, UniProt P01889, A223V/A65T/A93T/A95T/D201E/D98Y/E176V/E187L/E204Q/E69K/G107R/H137Y/K202T/L105A/L119I/N104T/N87E/Q56L/Q94N/R106L/R155S/R180D/S101N/S121R/S35A/S48T/T118I/V36M/W191S/Y140D/Y91S) (assay: MHC binding assay, UV-ligand exchange with β2m ELISA, HLA-B*44:02). Conditions: binding to HLA-B*44:02, UV-ligand exchange.
From the text: (§1) Candidate peptides for T cell based therapies according to the present invention were further tested for their MHC binding capacity (affinity). The individual peptide-MHC complexes were produced by UV-ligand exchange, where a UV-sensitive peptide is cleaved upon UV-irradiation, and exchanged with the peptide of interest as analyzed. Only peptide candidates that can effectively bind and stabilize the peptide-receptive MHC molecules prevent dissociation of the MHC complexes. To determine the yield of the exchange reaction, an ELISA was performed based on the detection of the light chain (β2m) of stabilized MHC complexes. The assay was performed as generally described in Rodenko et al. (Rodenko et al., 2006).
(§2) 96 well MAXISorp plates (NUNC) were coated over night with 2 ug/ml streptavidin in PBS at room temperature, washed 4× and blocked for 1 h at 37° C. in 2% BSA containing blocking buffer. Refolded HLA-A*02:01/MLA-001 monomers served as standards, covering the range of 15-500 ng/ml. Peptide-MHC monomers of the UV-exchange reaction were diluted 100-fold in blocking buffer. Samples were incubated for 1 h at 37° C., washed four times, incubated with 2 ug/ml HRP conjugated anti-β2m for 1 h at 37° C., washed again and detected with TMB solution that is stopped with […]. Absorption was measured at 450 nm. Candidate peptides that show a high exchange yield (preferably higher than 50%, most preferred higher than 75%) are generally preferred for a generation and production of antibodies or fragments thereof, and/or T cell receptors or fragments thereof, as they show sufficient avidity to the MHC molecules and prevent dissociation of the MHC complexes.
With “183 (GESQDSTTAL; listed as Homo sapiens) [compound 183]” the “Peptide exchange (MHC class I binding score, peptide exchange yield)” value (from here on “Peptide exchange”) was ““++” (>20% = ++)”. “184 (RMPPFTQAF; listed as Homo sapiens) [compound 184]” was tested, and the “Peptide exchange” value was ““++” (>20% = ++)”. In the case of “185 (SEGDNVESW; listed as Homo sapiens) [compound 185]”, the “Peptide exchange” value is reported as ““+++” (>50 = +++)”. “186 (NEQKIVRF; listed as Homo sapiens) [compound 186]” was tested, and the “Peptide exchange” value was ““+” (>10% = +)”. With “187 (SDAQRPSSF; listed as Homo sapiens) [compound 187]” the “Peptide exchange” value was ““+” (>10% = +)”. For “257 (KEFFFVKVF; listed as Homo sapiens) [compound 257]”, the “Peptide exchange” value was ““+++” (>50 = +++)”. With “258 (EELFRDGVNW; listed as Homo sapiens) [compound 258]” the “Peptide exchange” value was ““+++” (>50 = +++)”. For “259 (EENTLVQNY; listed as Homo sapiens) [compound 259]”, the “Peptide exchange” value was ““++” (>20% = ++)”. “260 (AEIGEGAYGKVF; listed as Homo sapiens) [compound 260]” was tested, and the “Peptide exchange” value was ““+++” (>50 = +++)”. With “261 (NEIEHIPVW; listed as Homo sapiens) [compound 261]” the “Peptide exchange” value was ““+++” (>50 = +++)”. For “262 (QENQAETHAW; listed as Homo sapiens) [compound 262]”, the “Peptide exchange” value was ““+++” (>50 = +++)”. For “263 (REAGFQVKAY; listed as Homo sapiens) [compound 263]”, the “Peptide exchange” value was ““+++” (>50 = +++)”. For “264 (SEDHSGSYW; listed as Homo sapiens) [compound 264]”, the “Peptide exchange” value was ““+++” (>50 = +++)”. With “265 (QEVDASIFKAW; listed as Homo sapiens) [compound 265]” the “Peptide exchange” value was ““+++” (>50 = +++)”. With “266 (VDASIFKAW; listed as Homo sapiens) [compound 266]” the “Peptide exchange” value was ““++” (>20% = ++)”. With “267 (KEKFPINGW; listed as Homo sapiens) [compound 267]” the “Peptide exchange” value was ““+++” (>50 = +++)”. In the case of “268 (NEDKGTKAW; listed as Homo sapiens) [compound 268]”, the “Peptide exchange” value is reported as ““++” (>20% = ++)”. With “269 (KELEDLNKW; listed as Homo sapiens) [compound 269]” the “Peptide exchange” value was ““+++” (>50 = +++)”. In the case of “270 (AESEDLAVHL; listed as Homo sapiens) [compound 270]”, the “Peptide exchange” value is reported as ““++” (>20% = ++)”. “271 (AESEDLAVHLY; listed as Homo sapiens) [compound 271]” was tested, and the “Peptide exchange” value was ““++” (>20% = ++)”. In the case of “272 (KEFELRSSW; listed as Homo sapiens) [compound 272]”, the “Peptide exchange” value is reported as ““+++” (>50 = +++)”. “273 (AEIEIVKEEF; listed as Homo sapiens) [compound 273]” was tested, and the “Peptide exchange” value was ““++” (>20% = ++)”. In the case of “274 (GEAVTDHPDRLW; listed as Homo sapiens) [compound 274]”, the “Peptide exchange” value is reported as ““+++” (>50 = +++)”. “275 (TENPLTKLL; listed as Homo sapiens) [compound 275]” was tested, and the “Peptide exchange” value was ““++++” (>75% = ++++)”. “276 (EEEGNLLRSW; listed as Homo sapiens) [compound 276]” was tested, and the “Peptide exchange” value was ““+++” (>50 = +++)”. In the case of “277 (EEGNLLRSW; listed as Homo sapiens) [compound 277]”, the “Peptide exchange” value is reported as ““+++” (>50 = +++)”.

Each substance was assayed against HLA-B*07:02 (Homo sapiens, UniProt P01889) (assay: MHC binding assay, UV-ligand exchange with β2m ELISA, HLA-B*07:02). Conditions: binding to HLA-B*07:02, UV-ligand exchange.
From the text: as §1, §2
With “77 (RPNGNSLFTSA; listed as Homo sapiens) [compound 77]” the “Peptide exchange” value was ““+++” (>50 = +++)”. With “78 (RPRGLALVL; listed as Homo sapiens) [compound 78]” the “Peptide exchange” value was ““+++” (>50 = +++)”. With “79 (SPVPSHWMVA; listed as Homo sapiens) [compound 79]” the “Peptide exchange” value was ““+++” (>50 = +++)”. For “80 (KPLFKVSTF; listed as Homo sapiens) [compound 80]”, the “Peptide exchange” value was ““++” (>20% = ++)”. In the case of “81 (SESPWLHAPSL; listed as Homo sapiens) [compound 81]”, the “Peptide exchange” value is reported as ““+++” (>50 = +++)”. With “82 (APFGFLGMQSL; listed as Homo sapiens) [compound 82]” the “Peptide exchange” value was ““+++” (>50 = +++)”. In the case of “83 (IPVSRPIL; listed as Homo sapiens) [compound 83]”, the “Peptide exchange” value is reported as ““+++” (>50 = +++)”. “84 (SPKLQIAAM; listed as Homo sapiens) [compound 84]” was tested, and the “Peptide exchange” value was ““+++” (>50 = +++)”. In the case of “85 (IPVSHPVL; listed as Homo sapiens) [compound 85]”, the “Peptide exchange” value is reported as ““++” (>20% = ++)”. With “86 (IPASHPVL; listed as Homo sapiens) [compound 86]” the “Peptide exchange” value was ““++” (>20% = ++)”. With “87 (FPAPILRAV; listed as Homo sapiens) [compound 87]” the “Peptide exchange” value was ““+++” (>50 = +++)”. In the case of “88 (MPDPHLYHQM; listed as Homo sapiens) [compound 88]”, the “Peptide exchange” value is reported as ““++” (>20% = ++)”. “89 (FPETVNNLL; listed as Homo sapiens) [compound 89]” was tested, and the “Peptide exchange” value was ““++” (>20% = ++)”. For “90 (KPKAAKPKA; listed as Homo sapiens) [compound 90]”, the “Peptide exchange” value was ““++” (>20% = ++)”. “91 (KPKAAKPKAA; listed as Homo sapiens) [compound 91]” was tested, and the “Peptide exchange” value was ““++” (>20% = ++)”. For “92 (KAKKPAGAA; listed as Homo sapiens) [compound 92]”, the “Peptide exchange” value was ““++” (>20% = ++)”. With “93 (KARKSAGAA; listed as Homo sapiens) [compound 93]” the “Peptide exchange” value was ““+++” (>50 = +++)”. For “94 (KPKAAKPKKAAA; listed as Homo sapiens) [compound 94]”, the “Peptide exchange” value was ““++” (>20% = ++)”. For “95 (KPKAAKPKTA; listed as Homo sapiens) [compound 95]”, the “Peptide exchange” value was ““++” (>20% = ++)”. “96 (KPKKAPKSPA; listed as Homo sapiens) [compound 96]” was tested, and the “Peptide exchange” value was ““+++” (>50 = +++)”. With “97 (LPFGKIPIL; listed as Homo sapiens) [compound 97]” the “Peptide exchange” value was ““++” (>20% = ++)”. “98 (YPIALTRAEM; listed as Homo sapiens) [compound 98]” was tested, and the “Peptide exchange” value was ““+++” (>50 = +++)”. In the case of “99 (SPRAINNLVL; listed as Homo sapiens) [compound 99]”, the “Peptide exchange” value is reported as ““++++” (>75% = ++++)”. In the case of “100 (YPYQERVFL; listed as Homo sapiens) [compound 100]”, the “Peptide exchange” value is reported as ““++” (>20% = ++)”. For “101 (NPRYPNYMF; listed as Homo sapiens) [compound 101]”, the “Peptide exchange” value was ““+++” (>50 = +++)”. In the case of “102 (LPLSMEAKI; listed as Homo sapiens) [compound 102]”, the “Peptide exchange” value is reported as ““++” (>20% = ++)”. “103 (IPANTEKASF; listed as Homo sapiens) [compound 103]” was tested, and the “Peptide exchange” value was ““++” (>20% = ++)”. With “104 (RPMTPTQIGPSL; listed as Homo sapiens) [compound 104]” the “Peptide exchange” value was ““+++” (>50 = +++)”. With “105 (NPLTKLLAI; listed as Homo sapiens) [compound 105]” the “Peptide exchange” value was ““+++” (>50 = +++)”. In the case of “106 (KAFKWFSAL; listed as Homo sapiens) [compound 106]”, the “Peptide exchange” value is reported as ““++” (>20% = ++)”. With “225 (LPARFYQAL; listed as Homo sapiens) [compound 225]” the “Peptide exchange” value was ““++++” (>75% = ++++)”. In the case of “226 (YLNRHLHTW; listed as Homo sapiens) [compound 226]”, the “Peptide exchange” value is reported as ““++” (>20% = ++)”. In the case of “227 (APINKAGSFL; listed as Homo sapiens) [compound 227]”, the “Peptide exchange” value is reported as ““++++” (>75% = ++++)”. “228 (SPRITFPSL; listed as Homo sapiens) [compound 228]” was tested, and the “Peptide exchange” value was ““++++” (>75% = ++++)”.
